The supplement of paper PMC10567573

B1: EPB41L3 (parent)
chain: KKFLTLGSKFRYSGRTQAQTRRAS
B2: LOXL2 (parent)
chain: RLLRFSSQIHNNGQSDFRPKNGRH

Variants of: B1
Test: protein stability index of a GFP-peptide fusion (GPS, HEK-293T) (PSI 1-6); higher = more stable
Conditions: c terminus: a fixed tail appended
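Also: lentivirally expressed fusions sorted by FACS into six bins by GFP to DsRed ratio, PSI derived from sequencing read proportions per bin multiplied by bin number.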

Protein stability index, by site and new letter:
F3: S 3.78, V 3.07, Q 2.95, H 3.82, N 3.59, A 3.62, P 3.6, L 3.22, K 3.65, C 3.76, E 3.11, T 3.48, R 4.15, D 3.81, Y 3.58, I 3.32, M 3.56
L4: P 3.8, I 2.56, C 3.06, Q 2.38, E 2.85, N 3.44, R 3.13, S 2.91, A 2.98, T 3.11, D 3.63, K 3.33, M 3.19, V 3.02, H 3.44, G 3.36, F 2.99
L6: I 2.75, Y 2.48, N 3.44, K 3.64, V 3.61, D 4.05, E 4.08, P 3.57, S 2.52, T 3.88, M 2.64, A 4.31, Q 3.97, C 3.17, H 3.38
G7: K 2.37, M 2.09, L 2.25, N 2.88, A 2.95, D 3.3, C 2.38, F 2.4, H 2.51, I 1.35
K1: C 2.56, V 2.25, A 2.2, D 2.43, F 2.45, R 3.7, G 3.83, T 2.38, P 2.18, I 2.42, Y 2.23, S 2.76, W 1.91, N 3.5, L 1.91, H 2.56, M 4.46
K2: E 2.47, L 1.57, R 4.02, Q 2.06, N 2.85, I 2.54, F 4.04, G 2.59, S 2.74, P 2.84, C 2.6, H 2.4, W 2.31, D 2.44, T 2.44, A 2.14, V 2.23, Y 2.22
T5: M 2.74, C 2.21, D 1.62, R 3.06, N 3.47, A 3.78, Y 1.88, W 1.56, P 2.67, I 2.27, H 2.82, Q 3.38, F 1.84, K 3.39, S 3.05, E 2.96, G 3.25

Variants of: B2
Test: as above
Conditions: c terminus: a fixed tail appended

Protein stability index: each site, then its substitutions
G22: F 2.11, K 2.62, A 2.57, D 2.94, W 2.22, P 2.7, I 2.19, L 2.49, H 2.4, E 2.4, T 2.39, S 3.02, V 2.01, R 2.47, C 2.4, M 2.27, Q 2.89, N 2.58, Y 2.71
R23: N 3.03, Q 2.4, K 2.8, H 2.36, G 2.71, C 1.97, T 3.29, P 2.46, Y 2.61, F 1.84, V 2.41, A 2.36, D 2.99, M 1.84, I 1.82, S 3.14, W 1.91, E 3.2, L 2.04
Q14: I 2.11, R 2.5, A 2.55, S 3.15, N 2.79, Y 1.91, W 2.06, K 2.39, P 2.81, V 2.15, H 2.59, F 1.8, M 2.5, L 2.19, T 3.35, C 2.3, G 2.52, D 2.84, E 3.26
D16: R 2.23, P 2.11, C 1.73, S 2.73, Q 2.51, L 2.7, M 1.77, V 2.15, A 2.36, H 2.35, F 1.97, G 2.12, I 2.17, T 2.29, Y 2.06, E 2.72, W 2.37, K 1.94, N 2.27
F17: K 3.34, P 3.45, T 3.31, S 3.15, G 3.04, N 3.42, A 2.95, I 3.38, D 3.75, C 2.8, H 3.52, R 3.06, V 2.95, W 2.32, M 3.06, Y 2.69, Q 3.42, E 3.67, L 2.75
K20: N 2.92, W 2.08, R 2.78, T 3.01, F 2.22, M 1.92, G 2.79, E 3.45, S 2.78, Q 2.54, I 2.17, C 2.35, D 2.91, H 2.6, Y 2.23, P 2.47, V 2.35, A 2.49, L 1.89
S15: T 2.8, D 3.06, P 3.12, Q 2.77, Y 2.83, L 2.36, G 3.29, I 2.72, R 2.55, V 2.44, M 2.2, F 2.28, A 2.61, W 2.44, N 2.36, E 3.14, H 3.05, C 2.65, K 2.42
P19: K 2.71, I 2.58, N 2.84, M 2.21, Q 2.7, D 2.9, V 2.04, C 2.52, S 2.98, R 2.41, G 2.78, T 2.32, F 2.13, E 3.29, W 2.76, Y 2.37, H 2.54, A 2.67, L 2.54
R18: Q 2.99, M 2.67, K 3.23, L 2.31, P 2.83, D 3.29, N 2.87, F 2.6, H 2.45, I 2.61, G 2.33, W 3.03, S 3.05, A 3.21, V 3.04, T 3.29, C 2.42, Y 2.59, E 3.27
N21: S 2.33, E 2.97, R 2.62, K 2.85, Q 2.71, M 2.27, L 2.17, H 2.23, Y 1.77, T 2.37, D 2.93, I 1.79, A 2.82, C 2.13, F 2.04, G 2.49, W 1.52, P 2.4, V 2.41
G13: Q 3.2, N 2.94, T 2.74, I 2.31, W 2.56, Y 2.09, M 2.81, L 2.39, H 3.06, K 2.15, R 3.19, S 2.46, P 2.62, V 2.24
H24: V 2.52, M 2.68, F 2.38, I 2.54, D 2.86, R 2.74, W 2.83, Q 3.16, S 3, K 3.5, Y 2.67, C 2.14, N 2.89, P 2.95, T 2.76, G 3.2, E 3.12, L 2.47, A 2.88
